# Marks after values point to notes of the source that are not given here.
# Assays:
# female rats = assay: Plasma metabolite profiling (GC-MS, LC-MS, SPE-LC-MS) in female rats dosed once daily over 28 days (OECD 407); format: in vivo, rat; conditions: female rats, plasma, high dose, day 28
# Method: Each dose group in the studies consisted of five rats per sex. Additional groups of each 5 male and female animals served as controls. […] All animals of the animal population were kept under the same constant temperature (20-24±3° C.) and the same constant humidity (30-70%). The animals of the animal population were fed ad libitum. The food to be used was essentially free of chemical or microbial contaminants. Drinking water was also offered ad libitum. Accordingly, the water was free of chemical and microbial contaminants as laid down in the European Drinking Water Directive 98/83/EG. The illumination period was 12 hours light followed by 12 hours darkness (12 hours light, from 6:00 to 18:00, and 12 hours darkness, from 18:00 to 6:00). […] The test substances (compounds) in the Tables 1 to 17 below were dosed and administered as described in the Table 18.
# In the morning of day 7, 14, and 28, blood was taken from the retroorbital venous plexus from fasted anaesthetized animals. From each animal, 1 ml of blood was collected with EDTA as anticoagulant. The samples were centrifuged for generation of plasma. All plasma samples were covered with a N2 atmosphere and then stored at −80° C. until analysis.
# For mass spectrometry-based metabolite profiling analyses plasma samples were extracted and a polar and a non-polar (lipid) fraction was obtained. For GC-MS analysis, the non-polar fraction was treated with methanol under acidic conditions to yield the fatty acid methyl esters. Both fractions were further derivatised with O-methyl-hydroxyamine hydrochloride and pyridine to convert Oxogroups to O-methyloximes and subsequently with a silylating agent before analysis. In LC-MS analysis, both fractions were reconstituted in appropriate solvent mixtures. HPLC was performed by gradient elution on reversed phase separation columns. Mass spectrometric detection which allows target and high sensitivity MRM (Multiple Reaction Monitoring) profiling in parallel to a full screen analysis was applied as described in WO2003073464.
# Steroids and their metabolites were measured by online SPE-LC-MS (Solid phase extraction-LC-MS).
# Following comprehensive analytical validation steps, the data for each analyte were normalized against data from pool samples. These samples were run in parallel through the whole process to account for process variability. The significance of treatment group values specific for sex, treatmentduration and metabolite was determined by comparing means of the treated groups to the means of the respective untreated control groups using WELCH-test and quantified with treatment ratios versus control and p-values.
# The identification of the most important biomarkers per toxicity pattern was done by a ranking of the analytes in the tables below. Therefore the metabolic changes in reference treatments of a given pattern (shown in the table) were compared with changes of the same metabolite in other unrelated treatments. […] The maximum absolute value of the respective TVALUE was taken to indicate the most important metabolite for the pattern.
# male rats = assay: Plasma metabolite profiling (GC-MS, LC-MS, SPE-LC-MS) in male rats dosed once daily over 28 days (OECD 407); format: in vivo, rat; conditions: male rats, plasma, high dose, day 28
# Summary of the method: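 Polar and lipid fractions profiled by GC-MS and LC-MS/MRM, steroids by online SPE-LC-MS; pool-normalized data compared to controls by Welch test as treatment ratios and p-values.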
substance,measurement,setting,value
"ACTH: adrenocorticotropin (ACTH) produced in the adenohypophysis of the pituitary gland (SYSMEHFRWGKPVGKKRRPVKVYPNGAEDESAEAFPLEF; Corticotropin; UniProt P01189 138-176, looked up)","3-Hydroxybutyrate, ratio versus control",female rats,0.85 *
same,"5-Oxoproline, ratio versus control",female rats,1.05 *
same,"18-Hydroxy-11-deoxycorticosterone, ratio versus control",female rats,0.69 *
same,"21-Hydroxyprogesterone (11-Deoxycorticosterone), ratio versus control",female rats,0.31 *
same,"Biotin, ratio versus control",female rats,0.7 *
same,"Choline plasmalogen No 03, ratio versus control",female rats,0.77 *
same,"Citrate, ratio versus control",female rats,0.92 *
same,"Corticosterone, ratio versus control",female rats,0.67 *
same,"Ketoleucine, ratio versus control",female rats,0.76 *
same,"Lactate, ratio versus control",female rats,0.68 *
same,"Lysophosphatidylcholine (C18:2), ratio versus control",female rats,1.06 *
same,"Lysophosphatidylcholine (C20:4), ratio versus control",female rats,1.11 *
same,"Malate, ratio versus control",female rats,0.76 *
same,"Mannose, ratio versus control",female rats,1.04 *
same,"TAG No 059, ratio versus control",female rats,1.62 *
same,"Tyrosine, ratio versus control",female rats,1.26 *
same,"alpha-Tocopherol, ratio versus control",female rats,0.95 *
same,"3,4-Dihydroxyphenylalanine (DOPA), ratio versus control",male rats,0.86 *
same,"3-Hydroxybutyrate, ratio versus control",male rats,0.65 *
same,"18-Hydroxy-11-deoxycorticosterone, ratio versus control",male rats,0.43 *
same,"21-Hydroxyprogesterone (11-Deoxycorticosterone), ratio versus control",male rats,0.18 *
same,"Biotin, ratio versus control",male rats,0.64 *
same,"Citrate, ratio versus control",male rats,0.82 *
same,"Corticosterone, ratio versus control",male rats,0.42 *
same,"Ketoleucine, ratio versus control",male rats,0.81 *
same,"Lysophosphatidylethanolamine (C22:5), ratio versus control",male rats,1.22 *
same,"Phosphatidylcholine No 04, ratio versus control",male rats,0.8 *
same,"Progesterone, ratio versus control",male rats,0.14 *
same,"Urea, ratio versus control",male rats,1.28 *
